The values that follow come from article PMC12098869, “An mRNA-display derived cyclic peptide scaffold reveals the substrate binding interactions of an N-terminal cysteine oxidase” (Nature Communications, 2025).

The labels stand for the following.
B1: RGS5_(2-15), synthetic peptide corresponding to the methionine excised N-terminus of RGS5, residues 2 to 15 [human] / 2-aminoethanethiol dioxygenase (ADO), full-length human, N-terminally His-tagged and biotinylated (pQE80L-Navi-ADO) … (parent complex)
chain 1: CKGLAALPHSCLER
chain 2: MPRDNMASLIQRIARQACLTFRGSGGGRGASDRDAASGPEAPMQPGFPENLSKLKSLLTQLRAEDLNIAPRKATLQPLPPNLPPVTYMHIYETDGFSLGVFLLKSGTSIPLHDHPGMHGMLKVLYGTVRISCMDKLDAGGGQRPRALPPEQQFEPPLQPREREAVRPGVLRSRAEYTEASGPCILTPHRDNLHQIDAVEGPAAFLDILAPPYDPDDGRDCHYYRVLEPVRPKEASSSACDLPREVWLLETPQADDFWCEGEPYPGPKVFP

In this assay the parent is B1. In words: SPR; parent: 1; read off a plot. (In general: In SPR one partner is held on a chip, and binding of the other changes the refractive index at the surface.)
For chain 2 MPRDNMASLIQRIARQACLTFRGSGGGRGASDRDAASGPEAPMQPGFPENLSKLKSLLTQLRAEDLNIAPRKATLQPLPPNLPPVTYMHIYETDGFSLGVALLKSGTSIPLHDHPGMHGMLKVLYGTVRISCMDKLDAGGGQRPRALPPEQQFEPPLQPREREAVRPGVLRSRAEYTEASGPCILTPHRDNLHQIDAVEGPAAFLDILAPPYDPDDGRDCHYYRVLEPVRPKEASSSACDLPREVWLLETPQADDFWCEGEPYPGPKVFP [chain 2 F101A], the ratio to parent was about 74.

With chain 2 MPRDNMASLIQRIARQACLTFRGSGGGRGASDRDAASGPEAPMQPGFPENLSKLKSLLTQLRAEDLNIAPRKATLQPLPPNLPPVTAMHIYETDGFSLGVFLLKSGTSIPLHDHPGMHGMLKVLYGTVRISCMDKLDAGGGQRPRALPPEQQFEPPLQPREREAVRPGVLRSRAEYTEASGPCILTPHRDNLHQIDAVEGPAAFLDILAPPYDPDDGRDCHYYRVLEPVRPKEASSSACDLPREVWLLETPQADDFWCEGEPYPGPKVFP [chain 2 Y87A], the ratio to parent is about 9.
